Results published in paper PMC11217426, “RNA-guided RNA silencing by an Asgard archaeal Argonaute”.
Residue numbers refer to the chain shown, from its start.

Key:
HrAgo1 [1] = biological target: T1, HrAgo1 (Candidatus Harpocratesius repetitus …, UniProt A0AAT8XUE3 1-817); assay: cryo-EM structure; 5 mM MgCl2; smFRET: 50 mM Tris-HCl pH 8.0, 500 mM NaCl (50 mM for EfPiwi), 1 mM Trolox, glucose oxidase/catalase, 22 C; cryo-EM: 5 mM HEPES pH 7.5, 250 mM KCl, 5 mM MgCl2; settings: protein: recombinant; tags: His-MBP removed by TEV; single strand; only 6 nt modelled
T1 sequence: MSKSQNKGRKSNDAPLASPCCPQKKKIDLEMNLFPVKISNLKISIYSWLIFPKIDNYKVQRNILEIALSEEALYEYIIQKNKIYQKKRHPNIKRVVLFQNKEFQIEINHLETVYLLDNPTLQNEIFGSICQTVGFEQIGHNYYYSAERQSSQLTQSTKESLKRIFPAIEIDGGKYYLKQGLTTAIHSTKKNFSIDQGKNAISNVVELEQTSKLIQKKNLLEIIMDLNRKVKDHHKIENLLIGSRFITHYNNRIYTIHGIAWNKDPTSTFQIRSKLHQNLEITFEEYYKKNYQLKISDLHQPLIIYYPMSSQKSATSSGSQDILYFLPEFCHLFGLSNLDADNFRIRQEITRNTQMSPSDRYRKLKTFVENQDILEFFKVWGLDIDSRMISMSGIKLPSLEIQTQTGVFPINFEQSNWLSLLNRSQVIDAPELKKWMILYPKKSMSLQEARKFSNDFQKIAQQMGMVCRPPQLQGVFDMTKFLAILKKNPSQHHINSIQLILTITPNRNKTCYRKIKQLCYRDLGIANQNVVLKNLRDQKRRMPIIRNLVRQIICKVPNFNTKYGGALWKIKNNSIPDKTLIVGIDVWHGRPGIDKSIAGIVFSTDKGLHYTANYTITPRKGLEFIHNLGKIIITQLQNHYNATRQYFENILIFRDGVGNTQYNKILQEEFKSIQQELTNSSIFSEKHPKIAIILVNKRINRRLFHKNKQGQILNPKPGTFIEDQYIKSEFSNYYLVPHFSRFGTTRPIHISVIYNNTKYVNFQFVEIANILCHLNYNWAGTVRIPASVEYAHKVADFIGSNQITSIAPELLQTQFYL

HrAgo1 [2] = biological target: T1, HrAgo1; assay: single-molecule FRET; 500 mM NaCl; majority dwell > 200 s, plus transient sub-population; smFRET: 50 mM Tris-HCl pH 8.0, 500 mM NaCl (50 mM for EfPiwi), 1 mM Trolox, glucose oxidase/catalase, 22 C; cryo-EM: 5 mM HEPES pH 7.5, 250 mM KCl, 5 mM MgCl2; settings: protein: recombinant, tags: His-MBP removed by TEV, label: Cy5 guide, Cy3 target, 3' biotin target
HrAgo1 [3] = biological target: T1, HrAgo1; assay: single-molecule FRET; 500 mM NaCl; stable binding, dwell > 200 s; smFRET: 50 mM Tris-HCl pH 8.0, 500 mM NaCl (50 mM for EfPiwi), 1 mM Trolox, glucose oxidase/catalase, 22 C; cryo-EM: 5 mM HEPES pH 7.5, 250 mM KCl, 5 mM MgCl2; settings: protein: recombinant; tags: His-MBP removed by TEV; label: Cy5 guide, Cy3 target, 3' biotin target; guide nt 2-16 pair

Binder: UGAGGUAGUAGGUUGUAUAGU (ssRNA, 5' phosphate) [let-7a guide RNA (cryo-EM)]
- binding result (HrAgo1 [1]): binds

B1: guide N6 / target N6 (dsRNA)
RNA 1: UGAGGUAUUUUUUUUUUUUUUU
RNA 2: UUUUUUUUUUUUUUUUUUUCUACCUCUUUUUUUUUUUUUUUUUUUUUUUUUUUUUUU
modifications: guide 5' phosphate; 5-LC-N-U at guide nt 9 and target nt 11
- binding result (HrAgo1 [2]; guide nt 2-7 pair): binds

B2: guide N15 / target N15 (dsRNA)
RNA 1: UGAGGUAGUAGGUUGUUUUUUU
RNA 2: B1 RNA 2 with U12A, U13C, U14A, U15A, U16C, U17C, U19A
modifications: guide 5' phosphate; 5-LC-N-U at guide nt 9 and target nt 11
- binding result (HrAgo1 [3]): binds

B3: guide N8 / target N8 (dsRNA)
RNA 1: UGAGGUAGUUUUUUUUUUUUUU
RNA 2: B1 RNA 2 with U19A
modifications: guide 5' phosphate; 5-LC-N-U at guide nt 9 and target nt 11
- binding result (HrAgo1 [2]; guide nt 2-9 pair): binds
